Like-named read-outs stand apart in the source and are kept apart here.

Data on three substances can be found in paper doi:10.1101/509141.

What all share (test): BLI
The target in assay [1] is Bacteriophage Sf6, whole virions (bacteriophage Sf6).
Assay [2] shares this target. This is another data set of the same source.
For assay [3] the target is unchanged. This is another data set of the same source.
Assay [4] has the same target. This is another data set of the same source.

“S. flexneri OmpA-TM N155E (domain or fragment)” came in with a Kd in assay [1] of 6.9 to 65.4 nM.

For the substance “OmpA-TM_(S.flex), transmembrane domain of S. flexneri outer membrane protein A (domain or fragment)”, the Kd in assay [1] was 36 nM; in assay [2], 89.9 nM; in assay [3] it was 82.3 nM; in assay [4], 99.6 nM.

In the case of “OmpA-TM_(E.coli), transmembrane domain of E. coli outer membrane protein A (domain or fragment)”, the dissociation constant (Kd) in assay [1] was 25 nM.
